Measurements published in patent US20260232759A1, “PEPTIDES THAT INHIBIT INFECTION BY SARS-COV-2, THE VIRUS THAT CAUSES COVID-19 DISEASE” (Wisconsin Alumni Research Foundation, priority 2021, published 2026).
No end group written: not given here.

Molecular target: SARS-CoV-2 Spike protein (SARS-CoV-2), P0DTC2
Test: cell-based or functional assay

B1: Bf APC/B3E (peptide)
peptide: DISQINASVVNIEYEIXKLEEVAXKLEESLIDLQELGSGSGC
modifications: not fully specified (C-terminus); also: α/β-peptide, β-residue positions not given here
B1 showed an inhibition of S-mediated cell-cell fusion (β-Gal complementation), IC50 of 50 nM.
